This note sets out measurements from patent publication US20050118638A1.

The target of assay [1] is TSH receptor (detergent solubilised TSH receptor preparation) (UniProt P16473). Put plainly: solubilised TSHR, PEG method; IgG 100 µg/ml; competitor 125I-16E5 Fab.
Assay [2] shares this target. Briefly: 125I-TSH, TSHR coated tubes; 20 µg/ml.
Assay [3] has the same target. Put plainly: 125I-TSH, TSHR coated tubes; 200 µg/ml.

TSH receptor (detergent solubilised TSH receptor preparation), sequence (P16473 21-764 limits assumed): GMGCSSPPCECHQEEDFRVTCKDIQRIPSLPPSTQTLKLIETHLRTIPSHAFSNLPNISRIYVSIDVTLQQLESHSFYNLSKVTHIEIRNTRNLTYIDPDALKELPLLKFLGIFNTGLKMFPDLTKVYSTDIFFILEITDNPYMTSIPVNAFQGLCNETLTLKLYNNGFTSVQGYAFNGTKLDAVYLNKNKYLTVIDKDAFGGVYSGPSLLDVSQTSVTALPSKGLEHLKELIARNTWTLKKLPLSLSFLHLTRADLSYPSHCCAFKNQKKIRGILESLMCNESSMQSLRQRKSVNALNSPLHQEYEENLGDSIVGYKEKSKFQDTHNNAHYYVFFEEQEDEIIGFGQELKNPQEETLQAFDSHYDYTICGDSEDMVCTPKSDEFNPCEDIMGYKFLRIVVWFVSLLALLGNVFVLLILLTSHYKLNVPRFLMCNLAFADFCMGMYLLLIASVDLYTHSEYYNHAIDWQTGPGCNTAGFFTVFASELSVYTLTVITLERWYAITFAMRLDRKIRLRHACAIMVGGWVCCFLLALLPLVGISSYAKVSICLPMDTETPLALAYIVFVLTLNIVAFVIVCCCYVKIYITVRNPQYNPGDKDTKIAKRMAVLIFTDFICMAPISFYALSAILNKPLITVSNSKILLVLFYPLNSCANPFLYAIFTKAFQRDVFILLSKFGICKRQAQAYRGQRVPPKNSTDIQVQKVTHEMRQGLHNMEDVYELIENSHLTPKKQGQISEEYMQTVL

B1: 3B3 IgG (antibody, V domains shown)
VH: DVQLQQPGAELVKPGASVKLSCTTSGVNIKDTYMHWMKQRPEQGLEWIGRIDPANGNTKYDPKFRGKATITADTSSNTVYVQLRSLTSEDTAVYYCAYDGYWGQGTLVTVSA
VL: NIVMTQTPASLAVSLGQRATISCRASESVDSYGNNFMHWYQQKPGQSPRLLIYRASNLESGIPARFSGSGSRTDFTLTTNPVEADDVATYYCQQSHKDPLTFGAGTKLELK
B1 registered a % inhibition of 125I-16E5 Fab binding in assay [1] of 8.8%. The % inhibition of TSH binding in assay [2] amounted to 6.1%; in assay [3], 30.7%.
